Here are results for three molecules from paper doi:10.1101/2023.12.02.569699 (bioRxiv, 2023).

First the molecules themselves.
T1: RING1B (H. sapiens, UniProt Q99496 1-336)
T1 sequence: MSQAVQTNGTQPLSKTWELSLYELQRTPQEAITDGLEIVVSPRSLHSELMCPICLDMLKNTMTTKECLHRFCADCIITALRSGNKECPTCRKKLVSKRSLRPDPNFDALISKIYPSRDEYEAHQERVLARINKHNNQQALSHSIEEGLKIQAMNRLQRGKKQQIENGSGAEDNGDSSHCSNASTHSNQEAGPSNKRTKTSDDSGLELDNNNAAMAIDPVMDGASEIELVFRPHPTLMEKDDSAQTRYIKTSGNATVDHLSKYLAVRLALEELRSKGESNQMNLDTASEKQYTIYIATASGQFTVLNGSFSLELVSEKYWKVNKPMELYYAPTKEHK

B1: CBX7 (natural protein)
chain: MELSAIGEQVFAVESIRKKRVRKGKVEYLVKWKGWPPKYSTWEPEEHILDPRLVMAYEEKEERDRASGYRKRGPKPRRLLLQESAAPDVVQTPGDWEPMEQAPEEEAEADLTNGPPPWTPTLPSSEVTVTDITANSVTVTFREAQAAEGFFRDRNEKL
B2: CBX7(F11A) (natural protein)
chain: MELSAIGEQVAAVESIRKKRVRKGKVEYLVKWKGWPPKYSTWEPEEHILDPRLVMAYEEKEERDRASGYRKRGPKPRRLLLQESAAPDVVQTPGDWEPMEQAPEEEAEADLTNGPPPWTPTLPSSEVTVTDITANSVTVTFREAQAAEGFFRDRNEKL
B3: MBP-tagged BMI1 (natural protein)
chain: MHRTTRIKITELNPHLMCVLCGGYFIDATTIIECLHSFCKTCIVRYLETSKYCPICDVQVHKTRPLLNIRSDKTLQDIVYKLVPGLFKNEMKRRRDFYAAHPSADAANGSNEDRGEVADEDKRIITDDEIISLSIEFFDQNRLDRKVNKDKEKSKEEVNDKRYLRCPAAMTVMHLRKFLRSKMDIPNTFQIDVMYEEEPLKDYYTLMDIAYIYTWRRNGPLPLKYRVRPTCKRMKISHQRDGLTNAGELESDSGSDKANSPAGGIPSTSSCLPSPSTPVQSPHPQFPHISSTMNGTSNSPSGNHQSSFANRPRKSSVNGSSATSSG

The experiment addresses T1, RING1B. Description: SEC.
With B1, the binding result is reported as “binds”. B2: the binding result is “binds”. Take B3: the binding result is listed as “binds”.
